In assay [1] the target is T1, human FcγRIIIa-V176 (human, UniProt P08637 17-208). In words: cell-based or functional assay.
For assay [2], the target named is T1, human FcγRIIIa-V176. Briefly: ELISA, antibody coated, His-tagged FcγR in solution.
Protocol: (§1) After blocking and washing, the serial diluted (5 g/ml˜0.02 μg/ml) FcγRs labeled with His-tag were added and incubated for 1 h. Then anti-His-HRP and TMB were added for detection of FcγR binding at OD450 nm.
Another assay concerns the target T2, human FcγRIIIa-F176 (human, UniProt P08637 17-208).
T2 construct: His-tagged (ELISA); also called hFcγRIIIA (F176)-his
The assay is described as above.

Another assay addresses human C1q (human, UniProt P02745 23-245; P02746 28-253; P02747 29-245). Briefly: ELISA: antibody immobilised, human C1q titrated, anti-C1q-HRP; the concentration axis is that of C1q.
A further assay deals with T3, Cyno FcγRIII-his (cyno, UniProt Q8SPW2 17-208).
T3 construct: also called cyno FcγRs
T3 sequence (Q8SPW2 17-208 limits assumed): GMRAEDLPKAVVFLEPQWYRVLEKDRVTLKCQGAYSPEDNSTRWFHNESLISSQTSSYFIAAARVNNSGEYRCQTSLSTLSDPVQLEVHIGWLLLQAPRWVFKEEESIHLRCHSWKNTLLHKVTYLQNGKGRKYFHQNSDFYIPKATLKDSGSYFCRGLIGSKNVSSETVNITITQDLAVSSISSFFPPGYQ
Briefly: ELISA: antibody coated, Cyno FcγRIII-his titrated, anti-His-HRP; the concentration axis is that of the receptor.

A further assay has as its target T4, human FcγRI (human, UniProt P12314 16-288).
T4 construct: also called hFcγRI-his
In words: ELISA: antibody coated at 1 ug/ml, hFcγRI-his titrated, anti-His-HRP; the concentration axis is that of the receptor.

The target of a further assay is T5, FcγRIV-his (Mus musculus (Mouse), UniProt A0A0B4J1G0 21-203).
T5 sequence: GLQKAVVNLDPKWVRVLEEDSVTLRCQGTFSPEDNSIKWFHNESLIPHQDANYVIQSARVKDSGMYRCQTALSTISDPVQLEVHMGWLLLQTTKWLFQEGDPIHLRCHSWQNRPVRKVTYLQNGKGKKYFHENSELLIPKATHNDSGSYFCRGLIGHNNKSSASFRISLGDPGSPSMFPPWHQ
Briefly: ELISA: antibody coated at 1 ug/ml, Mouse FcγRIV-his titrated, anti-His-HRP; the concentration is that of the receptor.

The target in assay [3] is T1, human FcγRIIIa-V176. Briefly: ELISA: antibody coated at 1 ug/ml, hFcγRIIIA(V176)-his titrated, anti-His-HRP; the concentration is that of the receptor.
Protocol: as §1
For another assay, the target named is T6, mouse FcγRI-his (mouse, UniProt P26151 25-297).
T6 sequence (looked up): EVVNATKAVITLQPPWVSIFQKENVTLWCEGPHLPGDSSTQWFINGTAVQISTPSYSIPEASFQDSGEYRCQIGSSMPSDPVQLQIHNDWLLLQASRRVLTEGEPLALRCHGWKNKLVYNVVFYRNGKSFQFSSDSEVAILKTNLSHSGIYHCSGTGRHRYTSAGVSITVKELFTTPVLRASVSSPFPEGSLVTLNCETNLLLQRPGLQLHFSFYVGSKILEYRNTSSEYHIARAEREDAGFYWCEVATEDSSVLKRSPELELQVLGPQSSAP
Briefly: ELISA: antibody coated at 1 ug/ml, Mouse FcγRI-his titrated, anti-His-HRP; the concentration axis is that of the receptor.

The target in another assay is T7, mouse FcγRIIB-his (mouse, UniProt P08101 30-207, limits assumed).
T7 sequence (looked up): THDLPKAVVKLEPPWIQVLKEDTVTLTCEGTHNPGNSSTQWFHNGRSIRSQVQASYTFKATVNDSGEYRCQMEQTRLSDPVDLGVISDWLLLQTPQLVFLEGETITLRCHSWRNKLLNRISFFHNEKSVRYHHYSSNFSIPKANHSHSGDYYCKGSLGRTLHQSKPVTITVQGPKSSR
In words: ELISA: antibody coated at 1 ug/ml, Mouse FcγRIIB-his titrated, anti-His-HRP; the concentration axis is that of the receptor.

For assay [4], the target named is T8, Human FcRn (FCGRT&B2M) Protein (human, UniProt P55899 24-297; P61769 21-119).
T8 construct: also called huFcRn-biotin
T8 sequence (P55899 24-297 limits assumed, chain 1 of 2): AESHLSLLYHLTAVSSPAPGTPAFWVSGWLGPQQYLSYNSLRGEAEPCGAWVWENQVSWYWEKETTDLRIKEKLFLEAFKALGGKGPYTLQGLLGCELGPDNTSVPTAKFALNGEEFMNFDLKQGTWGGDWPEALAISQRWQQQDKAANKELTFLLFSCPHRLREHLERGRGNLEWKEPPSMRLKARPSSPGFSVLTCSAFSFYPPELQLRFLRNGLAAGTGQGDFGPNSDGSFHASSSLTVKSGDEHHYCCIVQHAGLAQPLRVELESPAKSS
T8 sequence (P61769 21-119 limits assumed, chain 2 of 2): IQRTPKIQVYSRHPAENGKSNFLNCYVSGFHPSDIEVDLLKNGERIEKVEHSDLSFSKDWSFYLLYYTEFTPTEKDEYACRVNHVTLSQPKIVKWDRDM
Briefly: ELISA at pH 6.0: antibody immobilised, biotinylated FcRn titrated, Streptavidin-HRP; the concentration axis is that of FcRn.
Protocol: FcRn binding was evaluated by an ELISA method. […] Biotinylated FcRn was serial diluted in a pH6.0 dilution buffer (1 μg/ml˜0.0002 μg/ml) and then added for 1 h incubation. Next, Streptavidin-HRP and TMB were added for detection of binding at OD450 nm.

For assay [5], the target named is T9, human CLDN18.2 (human).
T9 construct: also called hCLDN18.2; Claudin-18 splice variant 2
In words: FACS, NUGC4 cells.

The target of assay [6] is T9, human CLDN18.2. In words: cell-based or functional assay.
Assay [7] concerns the target T9, human CLDN18.2. Briefly: FACS, MKN45-CLDN18.2-high cells.
Protocol: (§2) Log-phase HEK293-CLDN18.2 and NUGC4 cells were re-suspended in PBS. After 3× cell wash by using FACS washing buffer (PBS+2% FBS), 100 μl/well diluted hybridoma Abs with a range from 400 nM to 0.002 nM were added into each well for incubation at 4° C. for 30 min. Again, cells were washed 3 times by using FACS washing buffer and then incubated with 100 μl/well goat anti-mIgG-FITC (1:400 dilution) at 4° C. for another 30 min. After a final 3× wash using FACS washing buffer, cells were analyzed by flow Cytometry.
For assay [8], the target named is T9, human CLDN18.2. Briefly: FACS, HEK293-CLDN18.2 cells.
Assay [9] addresses T10, human CLDN18.2-mRFP1, wild-type (human).
T10 construct: human CLDN18.2 (amino acid 1-261) fused to mRFP1 (amino acid 1-225), transiently expressed in HEK293 cells; also called wild-type human CLDN18.2-mRFP
Briefly: FACS, transfected HEK293, 10 µg/ml antibody.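 Further: antibody binding read by flow cytometry with a FITC-labelled anti-human IgG secondary, gated on RFP-positive cells, each mutant signal expressed against wild-type CLDN18.2.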
Protocol: (§3) The transfected HEK293-CLDN18.2 or HEK293-CLDN18.1 cell were resuspended in PBS with 2% BSA at density of 10\hat{ }5/well, 100 μl/well. […] Next, cells were washed 3 times by FACS washing buffer and incubated with 100 μl/well goat anti-hIgG (H+L)-FITC (1:200 dilution) at 4° C. for another 30 min. Finally, cells were washed 3 times by FACS washing buffer and analyzed by Flow Cytometry. To analyze binding to CLDN18.2 transfected cells, the RFP positive cells were used for control gating.

In another assay the target is human CLDN18.2-mRFP Q29M (human). Briefly: FACS, transfected HEK293, 10 µg/ml antibody.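 Further: antibody binding read by flow cytometry with a FITC-labelled anti-human IgG secondary, gated on RFP-positive cells, each mutant signal expressed against wild-type CLDN18.2.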
human CLDN18.2-mRFP Q29M (human), sequence (chain, as listed by the source Q29M Q29M limits assumed): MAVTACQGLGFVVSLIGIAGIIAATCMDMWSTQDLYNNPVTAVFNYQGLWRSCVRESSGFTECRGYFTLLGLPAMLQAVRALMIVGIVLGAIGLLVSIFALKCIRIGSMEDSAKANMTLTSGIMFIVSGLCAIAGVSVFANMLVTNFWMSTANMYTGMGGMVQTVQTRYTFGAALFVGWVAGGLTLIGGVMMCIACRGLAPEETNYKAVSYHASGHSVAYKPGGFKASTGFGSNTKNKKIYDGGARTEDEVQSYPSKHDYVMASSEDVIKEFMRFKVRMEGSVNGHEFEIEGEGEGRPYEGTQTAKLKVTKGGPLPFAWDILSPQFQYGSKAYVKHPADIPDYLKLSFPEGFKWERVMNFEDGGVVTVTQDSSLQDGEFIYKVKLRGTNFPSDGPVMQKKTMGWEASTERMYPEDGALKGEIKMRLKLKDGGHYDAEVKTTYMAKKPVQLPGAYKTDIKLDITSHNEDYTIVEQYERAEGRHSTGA
The next assay concerns the target human CLDN18.2-mRFP N37D (human). In words: FACS, transfected HEK293, 10 µg/ml antibody.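 Further: antibody binding read by flow cytometry with a FITC-labelled anti-human IgG secondary, gated on RFP-positive cells, each mutant signal expressed against wild-type CLDN18.2.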
In a further assay the target is human CLDN18.2-mRFP A42S (human). In words: FACS, transfected HEK293, 10 µg/ml antibody.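 Further: antibody binding read by flow cytometry with a FITC-labelled anti-human IgG secondary, gated on RFP-positive cells, each mutant signal expressed against wild-type CLDN18.2.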
human CLDN18.2-mRFP A42S (human), sequence (chain, as listed by the source A42S A42S limits assumed): as the sequence (chain, as listed by the source Q29M Q29M limits assumed) above, with M29Q, A42S counted along it
Another assay addresses human CLDN18.2-mRFP N45Q (human). In words: FACS, transfected HEK293, 10 µg/ml antibody.
In another assay the target is human CLDN18.2-mRFP Q47E (human). In words: FACS, transfected HEK293, 10 µg/ml antibody.
human CLDN18.2-mRFP Q47E (human), sequence (chain, as listed by the source Q47E Q47E limits assumed): as the sequence (chain, as listed by the source Q29M Q29M limits assumed) above, with M29Q, Q47E counted along it
The target in a further assay is human CLDN18.2-mRFP E56Q (human). In words: FACS, transfected HEK293, 10 µg/ml antibody.
human CLDN18.2-mRFP E56Q (human), sequence (chain, as listed by the source E56Q E56Q limits assumed): as the sequence (chain, as listed by the source Q29M Q29M limits assumed) above, with M29Q, E56Q counted along it
The target in another assay is human CLDN18.2-mRFP G65P (human). In words: FACS, transfected HEK293, 10 µg/ml antibody.
human CLDN18.2-mRFP G65P (human), sequence (chain, as listed by the source G65P G65P limits assumed): as the sequence (chain, as listed by the source Q29M Q29M limits assumed) above, with M29Q, G65P counted along it
Another assay addresses human CLDN18.2-mRFP L69I (human). In words: FACS, transfected HEK293, 10 µg/ml antibody.
In another assay the target is T11, human CLDN18.1 (human, UniProt P56856 1-261).
T11 construct: on HEK293-CLDN18.1 cells; also called Claudin-18 splice variant 1; NP_057453.1
T11 sequence (P56856 whole entry, canonical isoform): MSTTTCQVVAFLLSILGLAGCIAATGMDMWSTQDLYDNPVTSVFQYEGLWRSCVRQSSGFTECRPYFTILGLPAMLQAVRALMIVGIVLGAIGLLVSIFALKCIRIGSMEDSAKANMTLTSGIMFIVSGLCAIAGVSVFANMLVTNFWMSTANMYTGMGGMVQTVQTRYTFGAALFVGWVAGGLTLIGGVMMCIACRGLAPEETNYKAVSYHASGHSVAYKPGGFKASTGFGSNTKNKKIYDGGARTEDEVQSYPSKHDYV
Briefly: flow cytometry on HEK293-CLDN18.1 cells, one antibody concentration.

Assay [10] has as its target T9, human CLDN18.2. In words: flow cytometry on HEK293-CLDN18.2 cells; unit taken from the concentration axis.
Protocol: as §2
Assay [11] deals with T9, human CLDN18.2. In words: flow cytometry on MKN45-CLDN18.2-high cells; unit taken from the concentration axis.
Protocol: as §2
For assay [12], the target named is T9, human CLDN18.2. Briefly: FACS, HEK293-CLDN18.2 cells; binds: FACS on overexpressing HEK293-CLDN18.2 cells.
For assay [13], the target named is T9, human CLDN18.2. In words: KinExA, NUGC4 cells; binds: Kd on NUGC4 gastric cells (endogenous CLDN18.2), affinity assay, not FACS EC50.
Assay [14] concerns the target T9, human CLDN18.2. Briefly: flow cytometry on BxPC-3-CLDN18.2 cells (y axis printed as Luminescence); unit taken from the concentration axis.
Assay [15] concerns the target T9, human CLDN18.2. In words: flow cytometry on MIA PaCa-2-CLDN18.2 cells (y axis printed as Luminescence); unit taken from the concentration axis.
Assay [16] concerns the target T9, human CLDN18.2. Briefly: flow cytometry on SNU-601 cells; unit taken from the concentration axis; the fitted value lies far above the highest concentration tested (about 30 ug/ml); the curve rises only from about 2 ug/ml on, to Mean FITC-A about 35000.
Assay [17] has as its target T9, human CLDN18.2. Briefly: flow cytometry on KATOIII cells; unit taken from the concentration axis; the fitted value lies far above the highest concentration tested (about 30 ug/ml); the curve rises only from about 2 ug/ml on, to Mean FITC-A about 43000.
Assay [18] concerns the target T9, human CLDN18.2. In words: flow cytometry on MKN45-CLDN18.2-medium cells; unit taken from the concentration axis; the fitted value lies far above the highest concentration tested (about 60 ug/ml); the curve lies on the isotype control up to about 7 ug/ml and reaches Mean FITC about 4200 at about 60 ug/ml.
Protocol: as §2

Where a chain is given by its changes, count along the chain named. Numbers in names are those of the source.

The record followed here is patent publication US20220306765A1 (SUZHOU TRANSCENTA THERAPEUTICS, published 2022).

T1 sequence (P08637 17-208 F176V limits assumed): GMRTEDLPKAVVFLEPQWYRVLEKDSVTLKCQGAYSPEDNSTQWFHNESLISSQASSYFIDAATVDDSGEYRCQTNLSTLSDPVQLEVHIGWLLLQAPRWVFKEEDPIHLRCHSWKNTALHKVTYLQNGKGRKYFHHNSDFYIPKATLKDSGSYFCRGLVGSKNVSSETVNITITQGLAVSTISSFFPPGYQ
human CLDN18.2-mRFP N37D (human), sequence (chain, as listed by the source N37D N37D limits assumed): as the sequence (chain, as listed by the source Q29M Q29M limits assumed) above, with M29Q, N37D counted along it
T4 sequence (P12314 16-288 limits assumed): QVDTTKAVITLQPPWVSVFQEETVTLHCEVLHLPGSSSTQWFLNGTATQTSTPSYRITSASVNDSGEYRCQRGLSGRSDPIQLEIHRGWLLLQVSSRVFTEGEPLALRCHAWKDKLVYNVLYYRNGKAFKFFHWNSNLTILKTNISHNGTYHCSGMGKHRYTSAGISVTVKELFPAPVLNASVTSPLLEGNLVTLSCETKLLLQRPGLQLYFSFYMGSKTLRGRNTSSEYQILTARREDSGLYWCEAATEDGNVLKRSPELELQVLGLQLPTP
human CLDN18.2-mRFP L69I (human), sequence (chain, as listed by the source L69I L69I limits assumed): as the sequence (chain, as listed by the source Q29M Q29M limits assumed) above, with M29Q, L69I counted along it
human C1q, sequence (P02745 23-245, chain 1 of 3): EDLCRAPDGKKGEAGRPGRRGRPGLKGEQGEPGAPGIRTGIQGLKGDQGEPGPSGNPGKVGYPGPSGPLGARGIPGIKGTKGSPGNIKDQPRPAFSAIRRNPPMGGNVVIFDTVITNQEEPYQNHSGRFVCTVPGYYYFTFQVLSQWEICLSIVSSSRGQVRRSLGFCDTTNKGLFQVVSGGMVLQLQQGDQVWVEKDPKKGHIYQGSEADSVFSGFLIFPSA
human C1q, sequence (P02746 28-253, chain 2 of 3): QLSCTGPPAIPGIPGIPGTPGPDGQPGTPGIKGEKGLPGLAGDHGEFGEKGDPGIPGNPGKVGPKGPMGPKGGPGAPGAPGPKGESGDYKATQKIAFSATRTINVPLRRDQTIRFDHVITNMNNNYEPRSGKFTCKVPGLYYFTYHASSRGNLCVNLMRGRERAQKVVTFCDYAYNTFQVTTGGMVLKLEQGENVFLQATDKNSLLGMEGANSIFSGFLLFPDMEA
human C1q, sequence (P02747 29-245, chain 3 of 3): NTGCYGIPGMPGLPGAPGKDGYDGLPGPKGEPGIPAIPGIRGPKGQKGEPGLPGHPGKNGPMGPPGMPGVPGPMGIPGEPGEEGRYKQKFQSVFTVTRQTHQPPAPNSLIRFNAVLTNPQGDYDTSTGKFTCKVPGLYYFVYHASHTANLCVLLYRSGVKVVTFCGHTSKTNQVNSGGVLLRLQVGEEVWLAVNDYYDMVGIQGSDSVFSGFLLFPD
human CLDN18.2-mRFP N45Q (human), sequence (chain, as listed by the source N45Q N45Q limits assumed): as the sequence (chain, as listed by the source Q29M Q29M limits assumed) above, with M29Q, N45Q counted along it
T2 sequence (P08637 17-208 limits assumed): as the sequence (P08637 17-208 F176V limits assumed) above, with V160F counted along it
Protocol for Cyno FcγRIII-his: as §1
Protocol for FcγRIV-his: as §1
Protocol for human C1q: C1q binding assay was taken following method. Two antibodies were immobilized on the plate. […] Then anti-C1q-HRP and TMB were added for detection at OD450 nm.
Protocol for human CLDN18.2-mRFP A42S: as §3
Protocol for human CLDN18.2-mRFP E56Q: as §3
Protocol for human CLDN18.2-mRFP G65P: as §3
Protocol for human CLDN18.2-mRFP L69I: as §3
Protocol for human CLDN18.2-mRFP N37D: as §3
Protocol for human CLDN18.2-mRFP N45Q: as §3
Protocol for human CLDN18.2-mRFP Q29M: as §3
Protocol for human CLDN18.2-mRFP Q47E: as §3
Protocol for human FcγRIIIa-F176: as §1
Protocol for mouse FcγRI-his: as §1
Protocol for mouse FcγRIIB-his: as §1

B1: 18B10-HaLa-L235V/F243L/R292P/Y300L/P396L (antibody, human IgG1, kappa)
heavy: QVQLVQSGAEVKKPGASVKVSCKASGYTFTGYNMNWVRQAPGQGLEWMGNIDPYYGGTSYNQKFKGRVTMTIDKSTSTVYMELSSLRSEDTAVYYCARMYHGNAFDYWGQGTTVTVSSASTKGPSVFPLAPSSKSTSGGTAALGCLVKDYFPEPVTVSWNSGALTSGVHTFPAVLQSSGLYSLSSVVTVPSSSLGTQTYICNVNHKPSNTKVDKKVEPKSCDKTHTCPPCPAPELVGGPSVFLLPPKPKDTLMISRTPEVTCVVVDVSHEDPEVKFNWYVDGVEVHNAKTKPPEEQYNSTLRVVSVLTVLHQDWLNGKEYKCKVSNKALPAPIEKTISKAKGQPREPQVYTLPPSRDELTKNQVSLTCLVKGFYPSDIAVEWESNGQPENNYKTTPLVLDSDGSFFLYSKLTVDKSRWQQGNVFSCSVMHEALHNHYTQKSLSLSPGK
light: not shown
notes: Fc variant of 18B10-HaLa; also called 18B10-HaLa-VLPYLL; copies: 2 + 2
For B1, in the assay with human FcγRIIIa-V176 [1], the “ADCC reporter EC50, NUGC4 targets, Jurkat-NFAT-luc-FcγRIIIA-V176 effectors” value amounted to 9.7 ng/mL. Also, the “fold increased binding vs 18B10-HaLa wild-type” value with human FcγRIIIa-V176 [2] and with human FcγRIIIa-F176 was 10 fold throughout. For the same molecule, the binding result (with human C1q; with Cyno FcγRIII-his; in the assay with human FcγRI; with mouse FcγRI-his; with mouse FcγRIIB-his; in assay [4]) was “binds” each time. Further, the results for the “EC50 (read off the curve)” value in the assay with FcγRIV-his and in the assay with human FcγRIIIa-V176 [3] were about 0.06 µg/mL and about 0.2 µg/mL, respectively.

B2: 18B10-C (antibody, human IgG1, V domains shown)
VH: EFQLQQSGPELEKPGASVRISCKTSGYSFTGYNMNWVKQSNGESLEWIGNIDPYYGGTSYNQKFKGKATLTVDKSSSTAYMQLKSLTSEDSAVYYCARMYHGNAFDYWGQGTTLTVSS
VL: DIVMTQSPSSLTVTAGEKVTMSCKSSQSLLNSGNLKNYLTWYQQKPGQPPKLLIYWASTRKSGVPDRFTGSGSGTDFTLTLSSVQAEDLAVYYCQNDYSYPLTFGAGTKLELK
notes: also called chimeric 18B10
On to B2, for which the EC50 was 7.8 µg/mL in the assay with human CLDN18.2 [5], 0.96 µg/mL in the assay with human CLDN18.2 [8], 1.35 µg/mL with human CLDN18.2 [10] and 1.87 µg/mL with human CLDN18.2 [11]. For the same molecule, the “ADCC reporter assay (Jurkat-NFAT-luc-FcγRIIIA-V176), MKN45-CLDN18.2-medium target cells” value in the assay with human CLDN18.2 [6] is 50 fold. Also, the “ADCC reporter assay, NUGC4 target cells” value with human CLDN18.2 [6] was over 40 fold. For the same molecule, the “fold increase in binding potency vs IMAB362” value with human CLDN18.2 [7] is about 2 fold. The “binding percentage vs wild-type CLDN18.2” value is 100% in assay [9]; 83.5% with human CLDN18.2-mRFP Q29M; 106% in the assay with human CLDN18.2-mRFP N37D; 69.2% with human CLDN18.2-mRFP A42S; 92% with human CLDN18.2-mRFP N45Q; 109% with human CLDN18.2-mRFP Q47E. The figures for the “binding percentage vs wild-type CLDN18.2” value with human CLDN18.2-mRFP E56Q, in the assay with human CLDN18.2-mRFP G65P and in the assay with human CLDN18.2-mRFP L69I were 6.57%, 118% and 112%, respectively. For the same molecule, the binding result with human CLDN18.1 is recorded as “no binding (tested: 10 ug/ml)”.

B3: IMAB362 (antibody, human IgG1, V domains shown)
VH: QVQLQQPGAELVRPGASVKLSCKASGYTFTSYWINWVKQRPGQGLEWIGNIYPSDSYTNYNQKFKDKATLTVDKSSSTAYMQLSSPTSEDSAVYYCTRSWRGNSFDYWGQGTTLTVSS
VL: B2 VL with L35Q, K61E, L81I, L102F, A106S, L112I
notes: chimeric IgG1 benchmark antibody, expressed according to US2009169547A1; also called IMAB362-analog; IMB362
As to B3, in the assay with human CLDN18.2 [6], the “ADCC EC50 (PBMC effectors, PI staining), NUGC4 cells” value was 0.54 µg/mL. The “binding percentage vs wild-type CLDN18.2” value in assay [9] was 100%. Besides, the EC50 came out at 0.42 µg/mL in the assay with human CLDN18.2 [12]; 4.05 µg/mL in the assay with human CLDN18.2 [11]; 2.47 µg/mL in the assay with human CLDN18.2 [14]; 0.66 µg/mL with human CLDN18.2 [15]; 15.3 mg/mL with human CLDN18.2 [16]; 18 mg/mL with human CLDN18.2 [17]. The EC50 with human CLDN18.2 [18] was about 16.8 mg/mL. For the same molecule, the Kd with human CLDN18.2 [13] is 2.58 nM.
